Assay results as given in patent US20100189713A1 (Biogen, published 2010).

How the values were obtained:
[1] = biological target: T1, full-length mouse plexin-A2 protein, N-terminal myc-tag, stably expressed on L cells (mouse, UniProt P70207 35-1894); experiment: AP-fusion binding to L cells stably expressing plexin-A2, colorimetric AP activity of cell lysates
T1 construct: whole, on cells; also called plexin-A2 expressing L cells
Method: In order to show the binding of Sema6A to Plexin-A2, L-cells that stably express the full-length mouse plexin-A2 proteins were incubated with 250 μl of HBSS with 0.5 mg/ml BSA, 0.1% NaN₃, and 20 mM HEPES, pH 7.0 (HBHA solution) containing 1% FBS and the AP-Sema6Aect-Fc recombinant proteins (the culture supernatant) for 1 h on ice as described in Flanagan and Leder, Cell 63: 185-194 (1990). After removal of the HBHA solution, cells were treated with 250 μl of 10 mM Tris-HCl, pH 8.0, supplemented with 0.1% Triton X-100 to dissolve the recombinant proteins bound to the cell surface. The cell lysates were subjected to colorimetric analysis to measure AP activity as described in Flanagan and Leder, Cell 63: 185-194 (1990) and Flanagan et al., Methods Enzymol 327: 17-35 (2000).
It was shown that the Fc-dimerized recombinant AP-tagged ectodomain of Sema6A bound with a high affinity to plexin-A2 expressing L cells. […] 25: 3628-3637 (2005).

[2] = biological target: T2, plexin-A2A396E expressed in COS7 cells (mouse, UniProt P70207 35-1894); experiment: AP-fusion binding assay on transfected COS7 cells
T2 construct: whole, on cells; Same point mutation as in NMF454 mice, made by site-directed mutagenesis; also called mutated plexin-A2A396E; NMF454 mutation
Method: This plexin-A2A396E cDNA was then expressed in COS7 cells, and its ability to bind Sema6A-AP was tested using the same method shown in Example 8. See Suto et al. Neuron 53: 5354 (2007).

T2 sequence (P70207 35-1894 A396E): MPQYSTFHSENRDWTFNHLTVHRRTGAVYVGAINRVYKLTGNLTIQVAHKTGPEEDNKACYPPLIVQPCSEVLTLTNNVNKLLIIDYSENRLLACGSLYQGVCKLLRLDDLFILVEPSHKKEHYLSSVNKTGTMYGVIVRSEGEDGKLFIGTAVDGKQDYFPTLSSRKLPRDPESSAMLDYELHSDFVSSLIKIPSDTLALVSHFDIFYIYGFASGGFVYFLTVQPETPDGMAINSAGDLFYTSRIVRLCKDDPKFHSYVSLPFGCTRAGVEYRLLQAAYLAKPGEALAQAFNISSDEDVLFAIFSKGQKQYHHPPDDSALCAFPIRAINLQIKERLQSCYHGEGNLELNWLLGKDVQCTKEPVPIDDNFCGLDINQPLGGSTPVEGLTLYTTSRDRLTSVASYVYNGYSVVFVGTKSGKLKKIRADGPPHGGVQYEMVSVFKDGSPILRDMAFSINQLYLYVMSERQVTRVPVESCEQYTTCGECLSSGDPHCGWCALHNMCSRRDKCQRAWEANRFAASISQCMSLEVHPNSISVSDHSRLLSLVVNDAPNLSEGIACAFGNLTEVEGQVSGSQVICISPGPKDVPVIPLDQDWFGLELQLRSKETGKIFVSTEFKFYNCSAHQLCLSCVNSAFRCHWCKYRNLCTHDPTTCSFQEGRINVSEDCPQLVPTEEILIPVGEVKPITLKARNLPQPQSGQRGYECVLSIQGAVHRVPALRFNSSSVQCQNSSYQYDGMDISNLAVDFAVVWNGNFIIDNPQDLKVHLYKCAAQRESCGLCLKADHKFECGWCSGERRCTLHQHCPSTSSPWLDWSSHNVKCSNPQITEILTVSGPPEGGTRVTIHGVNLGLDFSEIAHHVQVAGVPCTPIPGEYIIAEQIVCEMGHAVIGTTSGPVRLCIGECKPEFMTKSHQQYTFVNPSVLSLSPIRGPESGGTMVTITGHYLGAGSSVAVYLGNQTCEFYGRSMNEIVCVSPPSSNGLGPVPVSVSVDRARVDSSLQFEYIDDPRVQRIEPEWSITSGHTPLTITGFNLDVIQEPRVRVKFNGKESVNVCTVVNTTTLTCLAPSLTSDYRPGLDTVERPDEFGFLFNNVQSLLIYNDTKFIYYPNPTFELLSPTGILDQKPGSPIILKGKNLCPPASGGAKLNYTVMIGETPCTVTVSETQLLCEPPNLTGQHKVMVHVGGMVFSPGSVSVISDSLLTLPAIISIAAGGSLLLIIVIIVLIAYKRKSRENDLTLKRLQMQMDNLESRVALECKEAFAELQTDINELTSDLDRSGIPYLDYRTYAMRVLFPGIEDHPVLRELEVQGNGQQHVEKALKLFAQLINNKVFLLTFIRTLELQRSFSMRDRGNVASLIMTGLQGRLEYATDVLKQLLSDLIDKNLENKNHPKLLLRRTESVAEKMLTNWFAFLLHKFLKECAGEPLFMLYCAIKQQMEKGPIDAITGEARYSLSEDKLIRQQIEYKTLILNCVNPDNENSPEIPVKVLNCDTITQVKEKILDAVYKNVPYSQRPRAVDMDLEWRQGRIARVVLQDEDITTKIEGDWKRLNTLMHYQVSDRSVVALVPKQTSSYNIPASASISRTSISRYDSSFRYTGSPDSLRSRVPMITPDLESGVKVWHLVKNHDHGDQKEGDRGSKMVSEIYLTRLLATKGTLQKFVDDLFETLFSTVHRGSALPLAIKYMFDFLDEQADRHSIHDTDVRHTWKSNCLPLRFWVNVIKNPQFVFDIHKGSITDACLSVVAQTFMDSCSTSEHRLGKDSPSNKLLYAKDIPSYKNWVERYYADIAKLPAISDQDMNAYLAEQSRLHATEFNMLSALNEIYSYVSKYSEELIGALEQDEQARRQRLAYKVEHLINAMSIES
T1 sequence (P70207 other isoform, or with tags, fused parts or gaps): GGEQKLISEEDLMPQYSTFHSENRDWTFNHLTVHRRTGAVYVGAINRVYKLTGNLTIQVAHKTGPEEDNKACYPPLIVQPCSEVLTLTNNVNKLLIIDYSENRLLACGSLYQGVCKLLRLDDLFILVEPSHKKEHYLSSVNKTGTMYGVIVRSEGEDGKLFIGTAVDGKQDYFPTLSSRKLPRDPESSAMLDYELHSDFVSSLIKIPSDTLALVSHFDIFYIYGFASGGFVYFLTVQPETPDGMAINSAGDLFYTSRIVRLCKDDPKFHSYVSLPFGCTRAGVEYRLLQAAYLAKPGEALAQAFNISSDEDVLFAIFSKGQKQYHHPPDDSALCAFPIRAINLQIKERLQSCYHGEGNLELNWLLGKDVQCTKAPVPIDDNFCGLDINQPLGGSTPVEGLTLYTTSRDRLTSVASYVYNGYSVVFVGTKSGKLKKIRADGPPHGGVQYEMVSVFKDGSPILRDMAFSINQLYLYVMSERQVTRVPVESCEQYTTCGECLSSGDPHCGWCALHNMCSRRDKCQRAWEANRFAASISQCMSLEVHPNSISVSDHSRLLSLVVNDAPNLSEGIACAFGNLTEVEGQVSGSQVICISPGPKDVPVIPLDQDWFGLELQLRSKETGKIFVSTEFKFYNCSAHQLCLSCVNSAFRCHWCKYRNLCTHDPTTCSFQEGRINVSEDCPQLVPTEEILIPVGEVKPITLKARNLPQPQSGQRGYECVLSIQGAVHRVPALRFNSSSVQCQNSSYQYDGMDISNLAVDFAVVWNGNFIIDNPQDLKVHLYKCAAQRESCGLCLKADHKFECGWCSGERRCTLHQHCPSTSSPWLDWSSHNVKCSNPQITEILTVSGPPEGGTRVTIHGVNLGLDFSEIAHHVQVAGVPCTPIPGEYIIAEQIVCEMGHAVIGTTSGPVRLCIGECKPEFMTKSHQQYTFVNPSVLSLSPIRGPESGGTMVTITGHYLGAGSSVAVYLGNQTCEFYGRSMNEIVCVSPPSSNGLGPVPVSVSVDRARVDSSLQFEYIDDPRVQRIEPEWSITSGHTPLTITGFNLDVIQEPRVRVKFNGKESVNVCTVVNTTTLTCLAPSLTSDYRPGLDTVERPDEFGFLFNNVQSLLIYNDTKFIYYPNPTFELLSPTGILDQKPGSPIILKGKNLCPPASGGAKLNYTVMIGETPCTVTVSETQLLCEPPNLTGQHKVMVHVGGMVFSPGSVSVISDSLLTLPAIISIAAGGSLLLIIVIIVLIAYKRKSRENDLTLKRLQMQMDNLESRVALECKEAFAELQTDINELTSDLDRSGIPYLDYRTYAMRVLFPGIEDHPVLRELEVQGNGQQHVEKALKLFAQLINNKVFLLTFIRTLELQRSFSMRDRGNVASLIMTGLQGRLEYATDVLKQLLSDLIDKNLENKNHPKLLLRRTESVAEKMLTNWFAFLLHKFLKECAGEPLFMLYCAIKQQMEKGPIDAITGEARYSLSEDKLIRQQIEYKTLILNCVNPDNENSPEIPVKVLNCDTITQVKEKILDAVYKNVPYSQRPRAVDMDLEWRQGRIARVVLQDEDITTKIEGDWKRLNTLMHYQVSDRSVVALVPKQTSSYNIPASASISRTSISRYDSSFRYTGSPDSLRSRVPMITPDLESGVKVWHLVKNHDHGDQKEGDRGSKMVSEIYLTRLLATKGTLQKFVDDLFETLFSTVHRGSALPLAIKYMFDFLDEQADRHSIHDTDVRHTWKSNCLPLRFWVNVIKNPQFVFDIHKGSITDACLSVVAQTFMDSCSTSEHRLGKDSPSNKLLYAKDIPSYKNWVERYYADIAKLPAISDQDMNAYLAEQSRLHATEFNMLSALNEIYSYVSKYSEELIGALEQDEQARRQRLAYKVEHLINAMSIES

B1: recombinant Fc-dimerized AP-tagged Sema6A ectodomain (AP-Sema6Aect-Fc) (Fc fusion, mouse, UniProt O35464 18-648, looked up)
chain: AGFPEDSEPISISHGNYTKQYPVFVGHKPGRNTTQRHRLDIQMIMIMNRTLYVAARDHIYTVDIDTSHTEEIYCSKKLTWKSRQADVDTCRMKGKHKDECHNFIKVLLKKNDDTLFVCGTNAFNPSCRNYRVDTLETFGDEFSGMARCPYDAKHANIALFADGKLYSATVTDFLAIDAVIYRSLGDSPTLRTVKHDSKWLKEPYFVQAVDYGDYIYFFFREIAVEYNTMGKVVFPRVAQVCKNDMGGSQRVLEKQWTSFLKARLNCSVPGDSHFYFNILQAVTDVIRINGRDVVLATFSTPYNSIPGSAVCAYDMLDIANVFTGRFKEQKSPDSTWTPVPDERVPKPRPGCCAGSSSLEKYATSNEFPDDTLNFIKTHPLMDEAVPSIINRPWFLRTMVRYRLTKIAVDNAAGPYQNHTVVFLGSEKGIILKFLARIGSSGFLNGSLFLEEMNVYNPEKCSYDGVEDKRIMGMQLDRASGSLYVAFSTCVIKVPLGRCERHGKCKKTCIASRDPYCGWVRESGSCAHLSPLSRLTFEQDIERGNTDGLGDCHNSFVALNGHASSLYPSTTTSDSASRDGYESRGGMLDWNDLLEAPGSTDPLGAVSSHNHQDKKGVIRESYLKSNDQLVPV
notes: range 18-648; Used as culture supernatant of transfected HEK293T cells; also called Fc-dimerized recombinant AP-tagged ectodomain of Sema6A; not shown: alkaline phosphatase (AP) tag from the Aptag-4 vector; Fc from the pEF-Fc expression vector
Q: Which Kd [1] does the source give for B1 here?
A: 3.21 nM

B2: Sema6A-AP (ligand, UniProt O35464 19-649, looked up)
chain: GFPEDSEPISISHGNYTKQYPVFVGHKPGRNTTQRHRLDIQMIMIMNRTLYVAARDHIYTVDIDTSHTEEIYCSKKLTWKSRQADVDTCRMKGKHKDECHNFIKVLLKKNDDTLFVCGTNAFNPSCRNYRVDTLETFGDEFSGMARCPYDAKHANIALFADGKLYSATVTDFLAIDAVIYRSLGDSPTLRTVKHDSKWLKEPYFVQAVDYGDYIYFFFREIAVEYNTMGKVVFPRVAQVCKNDMGGSQRVLEKQWTSFLKARLNCSVPGDSHFYFNILQAVTDVIRINGRDVVLATFSTPYNSIPGSAVCAYDMLDIANVFTGRFKEQKSPDSTWTPVPDERVPKPRPGCCAGSSSLEKYATSNEFPDDTLNFIKTHPLMDEAVPSIINRPWFLRTMVRYRLTKIAVDNAAGPYQNHTVVFLGSEKGIILKFLARIGSSGFLNGSLFLEEMNVYNPEKCSYDGVEDKRIMGMQLDRASGSLYVAFSTCVIKVPLGRCERHGKCKKTCIASRDPYCGWVRESGSCAHLSPLSRLTFEQDIERGNTDGLGDCHNSFVALNGHASSLYPSTTTSDSASRDGYESRGGMLDWNDLLEAPGSTDPLGAVSSHNHQDKKGVIRESYLKSNDQLVPVT
notes: Printed only as 'Sema6A-AP'; Order of the pieces follows the printed label only; not shown: alkaline phosphatase (AP) tag
Q: Does B2 bind [2]?
A: no binding
